assay: yeast display, Sf9 membrane polyspecificity reagent, FACS + sequencing; frameworks hold sequencing errors
In short: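 Genes from sorted yeast were amplified by colony PCR, read by MiSeq 2 × 250 sequencing and filtered on CDR length. These cells carried a synthetic nanobody library in Saccharomyces cerevisiae BJ5465 and were sorted by FACS into low and high (top ~1%) gates on anti-HA and streptavidin fluorescence. Polyreactivity is labelled according to the gate of origin.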

Row | Sequence | polyreactivity (PSR sort gate)
1 | QVQLVESGGGLVQAGGSLRLSCAASGFIFYGNAMGWYRQAPGKERELVATISDGGSTNYADSVKGRFTISRDNAKNTVYFQMNSLKPEDTAVYYCATEYYTPVRGYGYWGQGTQVTVSS | low polyreactivity
2 | QVQLVESGGGLVQAGGSLRLSCAASGFIFYHYAMGWYRQAPGKERELVAAISWNGGRTYYADSVKGRFTISRDNAKNTVYLQMNSLKPEDTAVYYCAAPVLTSDYTLDSYYWGQGTQVTVSS | high polyreactivity
3 | QVQLVESGGGLVQAGGSLRLSCAASGFIFYKNAMGWYRQAAGKERELVASITRTGDSTNYADSVKGRFTISRDNPKNTVYLQLNSLKPEDTAVYYCAKVLRRWPDPAGGMDYWGQGTQVTVSS | high polyreactivity
4 | QVQLVESGGGLVQAGGSLRLSCAASGFIFYKNAMGWYRQAPGKERELVADISKRGASTYYADSVKGRFTISRDNAKNTVYLQMNSLKPEDTAVYYCAAGYYRASTTVTHGGIEGDSWGQGTQVTVSS | high polyreactivity
5 | QVQLVESGGGLVQAGGSLRLSCAASGFIFYKYAMGWYRQAPGKERELVAAISRRGGNTYYADSVKGRFTISRDNAKNTVYLQMNSLKPEDTAVYYCIAVLYFPYEYWGQGTQVTVSS | high polyreactivity
6 | QVQLVESGGGLVQAGGSLRLSCAASGFIFYLYAMGWYRQAPGKERELVAAISSSGGGTYYADSVKGRFTISRDNAKNTVYLQMNSLKPEDTAVYYCNVPLSYRSEYDYWGQGTQVTVSS | high polyreactivity
7 | QVQLVESGGGLVQAGGSLRLSCAASGFIFYLYAMGWYRQAPGKERELVAAISWSGGITYYADSVKGRFTISRDNAKNTVYLQMNSLKPEDTAVYYCNAVGASASDGDYWGQGTQVTVSS | high polyreactivity
8 | QVQLVESGGGLVQAGGSLRLSCAASGFIFYLYAMGWYRQAPGTERELVAAISSSGGGTYYADSVKGRFTISRDNAKNTVYLQMNSLKPEDTAVYYCNVPLSYRSEYDYWGQGTQVTVSS | high polyreactivity
9 | QVQLVESGGGLVQAGGSLRLSCAASGFIFYNALGWYRQAPGKERELVAAISSGGNTNYADSVKGRFTISRDNAKNTVYLQMNSLKPEDTAVYYCNAGLYQYDGWANYIRYDYWGQGTQVTVSS | low polyreactivity
10 | QVQLVESGGGLVQAGGSLRLSCAASGFIFYNYAMGWYRQAPGKERELVAAISASGGRTYYADSVKGRFTISRDNAKNTVYLQMNRLKPEETAVYYCNARVNYKGYDYWGQGTQVTVSS | high polyreactivity
11 | QVQLVESGGGLVQAGGSLRLSCAASGFIFYNYAMGWYRQAPGKVRELVAAISASGGRTYYADSVKGRFTISRDNAKNTVYLQMNRLKPEDTAVYYCNARVNYKGYDYWGQGTQVTVSS | high polyreactivity
12 | QVQLVESGGGLVQAGGSLRLSCAASGFIFYNYDMGWYRQAPGKERELVAAITGGGSTNYADSVKGRFTISRDNAKNTVYLKMNSLKPEDTAVYYCAAEEGPPCYRYDYWGQGTQVTVSS | low polyreactivity
13 | QVQLVESGGGLVQAGGSLRLSCAASGFIFYPNPMGWYRQAPGKERELVAAITSGGSTYADSVKGRFTISRDNAKNTVYLQMNSLKPEDTAVYYCAAVDTSIITFWYIASDGFDYWGQGTQVTVSS | low polyreactivity
14 | QVQLVESGGGLVQAGGSLRLSCAASGFIFYPYAMGSYRQAPGKERELVAAITSSGGSTYYADSVKGRFTISRDNAKNTVYLQMNSLKPEDTAVYYCAAYTSYYGTIIAFRYYYWGQGTQVTVSS | high polyreactivity
15 | QVQLVESGGGLVQAGGSLRLSCAASGFIFYQYAMGWYRQAPGKERELVAAISWGGGSTYYADSVKGRFTISRDNAKNTVYLQMNSLKPEDTAVYYCAATGLGWHSYHEYDYWGQGTQVTVSS | low polyreactivity
16 | QVQLVESGGGLVQAGGSLRLSCAASGFIFYQYAMGWYRQAPGKERELVATISFRGGRTYYADSVKGRFTISRDNAKNTVYLQMNSLKPEDTAVYYCNAKRVSSRFYKWDYYWGQGTEVTVSS | high polyreactivity

Source: the nanobody polyreactivity screen of Harvey et al. (2022)
